Experimental findings from paper PMC5970223, “Multiplexed profiling of GPCR activities by combining split TEV assays and EXT-based barcoded readouts” (Scientific Reports, 2018) are described below.

Where a name gives a salt, the structure may show the parent alone.

The subject of experiment [1] is dopamine and the adrenergic receptors. The conditions noted are these: U2OS cells, agonist 100 pM to 100 µM. The procedure:
(§1) Two hours after transfection, all cell populations were pooled, mixed, and evenly divided into fractions for plating onto assay dishes (Fig. 2a). The cells were cultured and stimulated under identical conditions for agonist or antagonist assays as initially described for GPCR split TEV assays (Supplementary Fig. S1a,b).
(§2) After cell lysis, RNA from each sample was isolated and converted into cDNA by reverse transcription. […] This permits the mixing of all samples and sequencing of all pooled samples using a single sequencing run (Fig. 2b). The sample barcodes enable tracing experimental conditions, whereas the read counts per EXTs serve as quantitative measurements for the corresponding GPCRs. […] From the normalized data the fold changes of receptor activities were finally calculated.
(§3) In addition to the stimulation with the single compounds, a compound-mixture (mix) of all agonists was tested. The first set of experiments were carried out in the human osteosarcoma cell line U2OS. We normalized the raw sequencing data to total read numbers of sample codes, followed by averaging reads of internal and external calibrator EXTs as described above (Supplementary Fig. S4).
(§4) Cells were resuspended in culture medium without antibiotics at a density of 1.5 × 10^6 cells/ml (U2OS) or 3 × 10^6 cells/ml (PC12). […] Transfection-mixes were added to cell suspensions and incubated for 2 h at 37 °C without shaking. Suspensions were centrifuged for 5 min at 900 rpm and resuspended in culture medium to remove transfection reagents. All transfection samples were combined within one pool and plated on multiple wells of 6-well plates and incubated for 24 h at 37 °C. Afterwards, cells were starved for 17–18 h and then treated with compounds for 6 h in duplicates. After compound treatment cells were washed with PBS and 500 µl RLT lysis buffer was applied for cell lysis. Lysates were processed for sequencing as described below.
RNA was additional in solution treated with Turbo DNase (Ambion) for 30 min at 37 °C and repurified over an RNeasy column. […]

Experiment [2] has as its system T1, somatostatin receptor SSTR3.
T1 construct: ORFs of GPCRs were PCR amplified; expressed in transfected cells; host or cells: U2OS
The experiment is described as follows: multiplexed GPCRprofiler assay in U2OS cells. To be noted: agonist 100 pM to 100 µM. The experiment is classed as cell-based, human. The procedure:
as §1, §2, §3, §4
(§5) RNA was additional in solution treated with Turbo DNase (Ambion) for 30 min at 37 °C and repurified over an RNeasy column. First-strand cDNA synthesis was performed with 1 µg total RNA using superscript III reverse transcriptase (Invitrogen) and 120 pmol of a random nanomer primer. […] On order to differentiate different samples 13mer barcodes were introduced between 5′ Ion adapter and target sequence. All processed samples of an experiment were combined within one pool and purified using PCR clean-up kit (Macherey-Nagel).
(§6) Raw sequencing data analyses were done by using BLAST algorithm and in-house developed R scripts.

The test system of experiment [3] is T2, somatostatin receptor SSTR2.
T2 construct: ORFs of GPCRs were PCR amplified; expressed in transfected cells; host or cells: U2OS
The experiment is described as follows: multiplexed GPCRprofiler assay in U2OS cells. The experiment is classed as cell-based, human. The conditions noted are these: agonist 100 pM to 100 µM. How it is done:
as §1, §2, §3, §4, §5, §6

The subject of experiment [4] is T3, somatostatin receptor SSTR1.
T3 construct: ORFs of GPCRs were PCR amplified; expressed in transfected cells; host or cells: U2OS
The experiment is described as follows: multiplexed GPCRprofiler assay in U2OS cells. The experiment is classed as cell-based, human. The conditions noted are these: agonist 100 pM to 100 µM. How it is done:
as §1, §2, §3, §4, §5, §6

The test system of experiment [5] is T4, Vasopressin receptor AVPR2.
T4 construct: ORFs of GPCRs were PCR amplified; expressed in transfected cells; host or cells: U2OS
The experiment is described as follows: multiplexed GPCRprofiler assay in U2OS cells. The experiment is classed as cell-based, human. To be noted: agonist 100 pM to 100 µM. The procedure: as §1, §2, §3, §4, §5, §6

Experiment [6] concerns T5, Vasopressin receptor AVPR1A.
T5 construct: ORFs of GPCRs were PCR amplified; expressed in transfected cells; host or cells: U2OS
The experiment is described as follows: multiplexed GPCRprofiler assay in U2OS cells. The experiment is classed as cell-based, human. The conditions noted are these: agonist 100 pM to 100 µM. The procedure: as §1, §2, §3, §4, §5, §6

In experiment [7] the target is DRD1-V2R-NTEV-tevS-GV (human) (UniProt P21728). The experiment is described as follows: split reporter (BiFC, NanoBiT); multiplexed GPCRprofiler: split TEV with EXT barcode read-out, U2OS cells transiently transfected with GPCR-V2R-NTEV-tevS-GV and β-arrestin2delta-CTEV, pooled; serotonin, dopamine, epinephrine, vasopressin, somatostatin or their mix, 100 pM to 100 µM, 6 h; also with paliperidone or aripiprazole alone or with an agonist mix (1 µM each, with histamine); fold change over unstimulated.

The target in experiment [8] is SSTR2 and SSTR3. The experiment is described as above.
Experiment [9] addresses DRD3-V2R-NTEV-tevS-GV (human) (UniProt P35462). The experiment is described as above.
For experiment [10], the target named is SSTR1-V2R-NTEV-tevS-GV (human) (UniProt P30872). Described as above.
Sequence of SSTR1-V2R-NTEV-tevS-GV (human) (P30872 whole entry): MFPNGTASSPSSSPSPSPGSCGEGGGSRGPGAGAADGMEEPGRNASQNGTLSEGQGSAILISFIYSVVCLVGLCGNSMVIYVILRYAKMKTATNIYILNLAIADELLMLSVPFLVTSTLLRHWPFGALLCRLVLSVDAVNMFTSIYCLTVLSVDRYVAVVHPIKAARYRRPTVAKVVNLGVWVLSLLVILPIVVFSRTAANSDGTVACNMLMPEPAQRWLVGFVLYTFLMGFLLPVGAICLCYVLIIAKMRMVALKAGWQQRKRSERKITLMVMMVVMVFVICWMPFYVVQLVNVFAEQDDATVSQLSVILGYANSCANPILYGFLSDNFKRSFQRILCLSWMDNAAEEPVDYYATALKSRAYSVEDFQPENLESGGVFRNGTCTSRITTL
Experiment [11] concerns the target ADRA2B-V2R-NTEV-tevS-GV (human) (UniProt P18089). The description is as above.
Experiment [12] deals with DRD2-V2R-NTEV-tevS-GV (human) (UniProt P14416). The experiment is described as above.
Sequence of DRD2-V2R-NTEV-tevS-GV (human) (P14416 whole entry): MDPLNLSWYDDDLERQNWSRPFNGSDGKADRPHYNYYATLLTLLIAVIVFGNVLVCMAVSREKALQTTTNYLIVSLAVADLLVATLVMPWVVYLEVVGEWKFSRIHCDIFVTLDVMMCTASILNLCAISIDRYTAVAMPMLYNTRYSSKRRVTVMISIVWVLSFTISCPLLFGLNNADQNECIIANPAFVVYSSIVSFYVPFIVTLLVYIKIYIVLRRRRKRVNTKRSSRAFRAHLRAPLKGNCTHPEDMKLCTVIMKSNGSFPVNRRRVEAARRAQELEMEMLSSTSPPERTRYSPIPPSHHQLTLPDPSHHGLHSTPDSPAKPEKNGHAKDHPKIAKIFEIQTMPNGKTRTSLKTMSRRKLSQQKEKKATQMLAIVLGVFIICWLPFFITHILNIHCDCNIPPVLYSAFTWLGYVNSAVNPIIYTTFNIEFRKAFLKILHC
The target in experiment [13] is ADRA2C-V2R-NTEV-tevS-GV (human) (UniProt P18825). The experiment is described as above.
Sequence of ADRA2C-V2R-NTEV-tevS-GV (human) (P18825 whole entry): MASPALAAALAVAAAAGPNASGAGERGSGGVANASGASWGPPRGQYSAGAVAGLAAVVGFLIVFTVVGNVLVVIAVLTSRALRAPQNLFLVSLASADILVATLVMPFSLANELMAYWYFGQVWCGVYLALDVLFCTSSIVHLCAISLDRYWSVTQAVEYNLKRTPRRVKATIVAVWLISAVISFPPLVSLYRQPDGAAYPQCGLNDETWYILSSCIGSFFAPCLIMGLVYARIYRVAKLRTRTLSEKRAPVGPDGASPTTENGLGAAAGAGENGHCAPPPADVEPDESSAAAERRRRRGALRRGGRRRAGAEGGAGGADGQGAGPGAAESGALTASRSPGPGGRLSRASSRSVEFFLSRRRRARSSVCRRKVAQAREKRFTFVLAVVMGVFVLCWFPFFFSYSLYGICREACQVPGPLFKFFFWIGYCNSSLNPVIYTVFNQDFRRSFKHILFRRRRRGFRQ
Experiment [14] has as its target HTR2A-V2R-NTEV-tevS-GV (human) (UniProt P28223). Kind of experiment: split reporter (BiFC, NanoBiT); multiplexed GPCRprofiler: split TEV with EXT barcode read-out, identical experiment in PC12 cells (Supplementary Fig. S5).
Experiment [15] concerns the target ADRA1A-V2R-NTEV-tevS-GV (human) (UniProt P35348). The description is as above.
For experiment [16], the target named is AVPR1A-V2R-NTEV-tevS-GV (human) (UniProt P37288). The description is as above.
Sequence of AVPR1A-V2R-NTEV-tevS-GV (human) (P37288 whole entry): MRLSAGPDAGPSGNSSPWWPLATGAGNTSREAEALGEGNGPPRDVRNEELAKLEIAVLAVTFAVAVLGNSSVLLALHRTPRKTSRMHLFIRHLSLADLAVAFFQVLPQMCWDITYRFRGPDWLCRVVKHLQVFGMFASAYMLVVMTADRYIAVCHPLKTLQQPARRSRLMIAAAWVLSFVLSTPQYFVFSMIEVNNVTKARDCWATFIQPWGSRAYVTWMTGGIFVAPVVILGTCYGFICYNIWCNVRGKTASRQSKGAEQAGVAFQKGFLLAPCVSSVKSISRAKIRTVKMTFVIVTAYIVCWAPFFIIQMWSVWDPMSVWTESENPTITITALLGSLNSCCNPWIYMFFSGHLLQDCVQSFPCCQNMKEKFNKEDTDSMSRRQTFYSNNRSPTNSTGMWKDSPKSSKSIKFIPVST

Sequence of β-arrestin2delta-CTEV (P32121 1-383, stated change not applied): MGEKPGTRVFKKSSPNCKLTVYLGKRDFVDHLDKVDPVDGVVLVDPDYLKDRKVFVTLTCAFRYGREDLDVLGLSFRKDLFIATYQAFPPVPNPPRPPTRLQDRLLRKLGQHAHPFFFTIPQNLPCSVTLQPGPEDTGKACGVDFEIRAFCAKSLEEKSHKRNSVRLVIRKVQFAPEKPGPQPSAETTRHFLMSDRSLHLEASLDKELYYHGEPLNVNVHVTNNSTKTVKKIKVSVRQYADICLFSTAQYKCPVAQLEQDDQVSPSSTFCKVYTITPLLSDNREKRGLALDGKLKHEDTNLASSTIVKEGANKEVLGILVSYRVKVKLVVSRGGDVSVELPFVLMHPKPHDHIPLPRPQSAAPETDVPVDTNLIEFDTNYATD
Sequence of ADRA2B-V2R-NTEV-tevS-GV (human) (P18089 whole entry): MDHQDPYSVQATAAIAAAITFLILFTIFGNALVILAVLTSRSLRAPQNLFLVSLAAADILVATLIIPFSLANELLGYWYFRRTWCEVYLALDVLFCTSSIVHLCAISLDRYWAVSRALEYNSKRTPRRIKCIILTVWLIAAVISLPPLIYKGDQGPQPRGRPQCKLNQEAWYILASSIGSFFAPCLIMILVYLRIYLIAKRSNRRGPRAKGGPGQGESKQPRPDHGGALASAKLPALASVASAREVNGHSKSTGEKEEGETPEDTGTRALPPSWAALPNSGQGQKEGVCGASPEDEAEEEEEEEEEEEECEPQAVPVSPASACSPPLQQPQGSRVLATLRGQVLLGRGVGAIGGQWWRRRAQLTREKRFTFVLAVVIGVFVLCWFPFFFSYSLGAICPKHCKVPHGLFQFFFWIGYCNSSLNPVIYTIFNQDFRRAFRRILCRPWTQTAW
Sequence of DRD3-V2R-NTEV-tevS-GV (human) (P35462 whole entry): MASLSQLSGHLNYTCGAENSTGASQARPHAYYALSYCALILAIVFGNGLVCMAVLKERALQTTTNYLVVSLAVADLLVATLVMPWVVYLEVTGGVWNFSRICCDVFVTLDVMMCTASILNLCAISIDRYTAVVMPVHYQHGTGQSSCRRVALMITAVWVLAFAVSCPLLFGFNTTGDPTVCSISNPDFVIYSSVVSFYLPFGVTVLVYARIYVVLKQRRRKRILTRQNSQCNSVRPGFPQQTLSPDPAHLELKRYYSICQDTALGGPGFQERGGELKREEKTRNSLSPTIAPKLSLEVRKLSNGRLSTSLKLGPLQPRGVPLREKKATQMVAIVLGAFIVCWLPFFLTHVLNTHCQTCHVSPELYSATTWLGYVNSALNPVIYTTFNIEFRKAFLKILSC
Sequence of ADRA1A-V2R-NTEV-tevS-GV (human) (P35348 whole entry): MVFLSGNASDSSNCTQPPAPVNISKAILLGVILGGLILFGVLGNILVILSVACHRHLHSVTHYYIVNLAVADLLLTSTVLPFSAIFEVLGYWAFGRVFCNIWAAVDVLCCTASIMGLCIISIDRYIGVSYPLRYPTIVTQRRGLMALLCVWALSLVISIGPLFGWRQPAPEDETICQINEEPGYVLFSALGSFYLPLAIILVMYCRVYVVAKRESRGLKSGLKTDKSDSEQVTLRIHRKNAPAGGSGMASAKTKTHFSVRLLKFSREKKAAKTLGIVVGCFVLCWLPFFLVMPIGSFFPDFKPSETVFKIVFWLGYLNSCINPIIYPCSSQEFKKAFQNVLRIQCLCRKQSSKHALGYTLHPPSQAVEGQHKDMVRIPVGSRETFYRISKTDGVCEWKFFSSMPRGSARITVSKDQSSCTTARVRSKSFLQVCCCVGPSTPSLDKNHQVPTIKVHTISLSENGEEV

As to `CNC[C@H](O)c1ccc(O)c(O)c1` [Epinephrine, Epinephrine hydrochloride], the “signals of both receptor subfamilies (dopamine and adrenergic) upon stimulation” value in experiment [1] is “elevated signals”.
Somatostatin: the “induction rate (up to)” value was 9–10 fold in [2], 9–10 fold in experiment [3] and “up to 4 fold” in experiment [4].
In the case of [Arg8]-Vasopressin acetate salt, the “receptor induction by agonist” value in experiment [5] and in [6] was “induced” in each case.
With “β-arrestin2delta-CTEV (from UniProt P32121 1-383) (domain or fragment)”, the fold change of receptor activation (split TEV signal) over unstimulated is 2 fold in [7]; 9 to 10 fold in [8]; 2 fold in [9]; 4 fold in [10]; 10 fold in [11]; 13 fold in experiment [13]. The fold change of receptor activation (split TEV signal) over unstimulated, at 10 µM serotonin in experiment [12] is 5 fold. Also, the fold activation (split TEV signal) in [14] was determined as 89.5 fold; in [15] it was 314 fold; in experiment [16], 44.3 fold.
